Data: US20080280308A1

B1: AG19 … (peptide)
peptide: PRPRLLRFKIP
B2: AG1 … (peptide)
peptide: QGMQLRRFKLR
B3: AG18 … (peptide)
peptide: QRMNLGPCGLL
B4: AG2 … (peptide)
peptide: QGEHLRQLQLQ
B5: BAR8 … (peptide)
peptide: ERLHRRLFQLH
B6: BAR2 … (peptide)
peptide: QRVHLRQDELL
B7: BAR3 … (peptide)
peptide: QWMDLRQHELL
B8: BAR31 … (peptide)
peptide: QRLRLRKYRLF
B9: AG9 … (peptide)
peptide: QRMPLRQYELL
B10: BAR40 … (peptide)
peptide: PCIQLGQYESF
B11: AG13 … (peptide)
peptide: QRLHLRGYEFL
B12: BAR11 … (peptide)
peptide: HRRHIGPFALL
B13: BAR20 … (peptide)
peptide: NCMKFRSCGLF
B14: AG4 … (peptide)
peptide: QRLRLGPDELF
B15: BAR1 … (peptide)
peptide: QRIHRRPFKFF
B16: AG3 … (peptide)
peptide: QRMPLRLFEFL
B17: AG11 … (peptide)
peptide: DRMHLWRFGLL
B18: AG20 … (peptide)
peptide: RWLHWQYRGRG

Legend:
[1] = target: human thrombin receptor (PAR1) (human) (UniProt P25116); assay: ELISA, purified MBP-Gαq on reconstituted PAR1 with thrombin receptor activating peptide
Chain of human thrombin receptor (PAR1) (human) (P25116 42-425): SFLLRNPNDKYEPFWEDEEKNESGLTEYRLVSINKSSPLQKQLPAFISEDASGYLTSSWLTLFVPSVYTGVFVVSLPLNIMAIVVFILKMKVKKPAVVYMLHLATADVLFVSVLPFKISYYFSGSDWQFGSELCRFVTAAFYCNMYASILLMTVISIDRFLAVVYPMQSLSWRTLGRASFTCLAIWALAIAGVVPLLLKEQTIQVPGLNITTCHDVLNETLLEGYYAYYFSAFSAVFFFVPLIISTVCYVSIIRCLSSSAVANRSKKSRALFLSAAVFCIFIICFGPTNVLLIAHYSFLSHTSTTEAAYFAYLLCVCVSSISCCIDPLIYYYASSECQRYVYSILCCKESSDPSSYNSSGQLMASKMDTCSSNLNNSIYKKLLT

[2] = target: light-activated rhodopsin (bovine) (UniProt P02699); assay: ELISA, MBP fusion on light-activated rhodopsin
Chain of light-activated rhodopsin (bovine) (P02699 whole entry, the tested form may be a part): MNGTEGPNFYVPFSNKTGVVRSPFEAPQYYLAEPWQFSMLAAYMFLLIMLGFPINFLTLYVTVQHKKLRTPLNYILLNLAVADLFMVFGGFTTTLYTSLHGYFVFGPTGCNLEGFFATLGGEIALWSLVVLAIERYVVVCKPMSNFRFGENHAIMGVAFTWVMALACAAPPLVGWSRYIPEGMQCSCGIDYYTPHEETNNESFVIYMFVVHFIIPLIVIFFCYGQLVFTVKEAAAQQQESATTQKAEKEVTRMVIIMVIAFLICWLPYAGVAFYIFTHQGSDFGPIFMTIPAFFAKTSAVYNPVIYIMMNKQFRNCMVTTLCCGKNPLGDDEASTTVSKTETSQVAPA

β2 adrenergic receptor = assay: ELISA of panned Gs library clones on reconstituted receptor

Molecule	ELISA (β2 adrenergic receptor)	other results
maltose binding protein-Gαq (MBP-Gαq)		IC50 [1]: 0.214 µM
MBP-Gαt340-350K341R		IC50 [2]: 6 µM
B1	0.361	
B2	0.435	
B3	0.155	
B4	0.33	
B5	0.047	
B6	0.197	
B7	0.185	
B8	0.026	
B9	0.19	
B10	0.028	
B11	0.054	
B12	0.048	
B13	0.079	
B14	0.291	
B15	0.218	
B16	0.217	
B17	0.192	
B18	0.431	
